The results in this text go back to publication PMC4756812, “ZFP57 recognizes multiple and closely spaced sequence motif variants to maintain repressive epigenetic marks in mouse embryonic stem cells”.

Series [1] concerns the target T1, MBP-ZFP57 DNA binding domain (Glu87-Ala195) (Mus musculus, UniProt Q8C6P8 87-195).
T1 sequence: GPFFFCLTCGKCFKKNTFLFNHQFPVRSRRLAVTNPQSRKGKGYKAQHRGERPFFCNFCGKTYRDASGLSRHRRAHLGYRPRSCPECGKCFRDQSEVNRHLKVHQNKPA
Briefly: EMSA; EMSA: 25 pmol protein, 2.5 pmol dsDNA, 25 mM HEPES pH 7.9, 50 mM KCl, 6.25 mM MgCl2, 5% glycerol, on ice 10 min; 5% PAGE, SYBR Green stain. The conditions noted are these: protein: recombinant; blunt.

Series [2] addresses T1, MBP-ZFP57 DNA binding domain …. Briefly: EMSA; lower efficiency than control TGCCGC; EMSA: 25 pmol protein, 2.5 pmol dsDNA, 25 mM HEPES pH 7.9, 50 mM KCl, 6.25 mM MgCl2, 5% glycerol, on ice 10 min; 5% PAGE, SYBR Green stain. The note with it: protein: recombinant; blunt. Background: In EMSA bound probe runs differently from free probe, usually more slowly.

B1: Methylated Control (dsDNA)
DNA 1: GTAATATTGCCGCAGTAATA
DNA 2: TATTACTGCGGCAATATTAC
modifications: 5mC at top 11 and bottom 9 (5'-based; printed Z)
For the molecule B1, the binding result in series [1] was “binds”.

B2: Methylated 1G (dsDNA)
DNA 1: GTAATATGGCCGCAGTAATA
DNA 2: TATTACTGCGGCCATATTAC
modifications: 5mC at top 11 and bottom 9
On to B2, for which the binding result in series [1] was “binds”.

B3: Methylated Commd1 (dsDNA)
DNA 1: GTAACTGCGGCCGCCCCACA
DNA 2: TGTGGGGCGGCCGCAGTTAC
modifications: 5mC at top 8, 12 and bottom 12, 8 (5'-based)
Take B3: in series [2], the binding result is “binds”.

B4: Methylated Ston2 JF1 (dsDNA)
DNA 1: CTGGGGCGGCAGTTGCCGCAGATGG
DNA 2: CCATCTGCGGCAACTGCCGCCCCAG
modifications: 5mC at top 7, 17; methylated bottom strand not in material
For the molecule B4, the binding result in series [1] was “binds”.
